From PMC2873410

Assays:
Assay in all cases: cross-linking; lysate (hypotonic buffer) of Sf9 cells expressing the V5-tagged protein, 0.01% glutaraldehyde at room temperature for various times; Western blot with anti-V5 antibody
[1] = molecular target: WSSV structural protein VP19, full length, V5- or FLAG-tagged (white spot syndrome virus (WSSV-TW strain))
[2] = molecular target: WSSV structural protein VP24, full length, V5- or FLAG-tagged (white spot syndrome virus (WSSV-TW strain))
[3] = molecular target: WSSV structural protein VP51A, full length, V5- or FLAG-tagged (white spot syndrome virus (WSSV-TW strain))

Substance: WSSV structural protein VP19, full length, V5- or FLAG-tagged (natural protein)
- stoichiometry N [1]: 2

Substance: WSSV structural protein VP24, full length, V5- or FLAG-tagged (natural protein)
- stoichiometry N [2]: 2

Substance: WSSV structural protein VP51A, full length, V5- or FLAG-tagged (natural protein)
- stoichiometry N [3]: 2
